Source: US20220315554A1, “COMPOUNDS COMPRISING A […] LIGAND AND USE THEREOF” (priority 2019, published 2022)
One block for each binder: values may come before it. Bridge positions count the residues as written; N and C are the ends. * marks the point of attachment. tMeBn(DOTA-AET) = Cys-Cys bridge (thioethers) carrying DOTA-AET; tMeBn(DOTA-PP) = Cys-Cys bridge (thioethers) carrying DOTA-PP; Hexanoyl = CCCCCC(=O)*

Legend:
Test in all cases: radioligand displacement, 10 uM compound
Conditions in all cases: remark: other sources report otherwise
[1] = molecular target: 5-HT transporter (h) (human (printed (h))), P31645
[2] = molecular target: 5-HT2A (h) (human (printed (h))), P28223
[3] = molecular target: T1, AR (h) (human (printed (h))), P10275
T1 chain: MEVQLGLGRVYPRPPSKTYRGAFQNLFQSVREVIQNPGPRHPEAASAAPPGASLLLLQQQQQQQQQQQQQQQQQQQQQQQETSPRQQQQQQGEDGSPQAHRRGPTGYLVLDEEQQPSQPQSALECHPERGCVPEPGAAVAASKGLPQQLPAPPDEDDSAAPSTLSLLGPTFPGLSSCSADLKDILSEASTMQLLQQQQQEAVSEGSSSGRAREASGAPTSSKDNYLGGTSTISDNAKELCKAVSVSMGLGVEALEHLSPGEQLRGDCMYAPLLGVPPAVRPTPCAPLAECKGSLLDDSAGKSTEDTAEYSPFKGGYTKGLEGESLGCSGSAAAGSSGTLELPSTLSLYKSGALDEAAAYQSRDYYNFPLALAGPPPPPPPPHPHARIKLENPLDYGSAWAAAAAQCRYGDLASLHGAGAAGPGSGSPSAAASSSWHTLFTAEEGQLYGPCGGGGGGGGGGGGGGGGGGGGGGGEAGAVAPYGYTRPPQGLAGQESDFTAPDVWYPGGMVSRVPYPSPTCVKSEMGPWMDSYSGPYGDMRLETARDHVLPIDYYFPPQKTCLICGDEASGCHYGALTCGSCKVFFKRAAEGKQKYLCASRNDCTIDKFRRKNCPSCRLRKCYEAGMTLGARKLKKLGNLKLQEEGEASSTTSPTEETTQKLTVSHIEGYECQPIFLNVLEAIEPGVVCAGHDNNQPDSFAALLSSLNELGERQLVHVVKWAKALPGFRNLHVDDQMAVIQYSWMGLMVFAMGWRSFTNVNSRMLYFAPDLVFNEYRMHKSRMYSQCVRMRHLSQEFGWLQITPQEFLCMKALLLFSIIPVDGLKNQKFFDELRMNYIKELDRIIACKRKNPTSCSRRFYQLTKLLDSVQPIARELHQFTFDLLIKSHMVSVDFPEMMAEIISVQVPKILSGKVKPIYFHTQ

[4] = molecular target: CB2 (h) (human (printed (h))), P34972
[5] = molecular target: T2, CCK1 (CCKA) (h) (human (printed (h))), P32238
T2 chain: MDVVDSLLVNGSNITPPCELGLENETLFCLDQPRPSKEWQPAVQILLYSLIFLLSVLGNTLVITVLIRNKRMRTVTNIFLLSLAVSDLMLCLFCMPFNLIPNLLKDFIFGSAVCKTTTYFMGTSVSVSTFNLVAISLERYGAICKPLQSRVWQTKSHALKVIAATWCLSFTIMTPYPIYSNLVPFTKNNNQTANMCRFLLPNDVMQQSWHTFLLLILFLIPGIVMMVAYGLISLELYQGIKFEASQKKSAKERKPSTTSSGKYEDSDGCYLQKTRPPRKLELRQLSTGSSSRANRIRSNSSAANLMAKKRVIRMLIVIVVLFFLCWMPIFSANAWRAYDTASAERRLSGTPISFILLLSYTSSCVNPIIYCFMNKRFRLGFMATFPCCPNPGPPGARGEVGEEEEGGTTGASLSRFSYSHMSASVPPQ

[6] = molecular target: H1 (h) (human (printed (h))), P35367
[7] = molecular target: H2 (h) (human (printed (h))), P25021
[8] = molecular target: T3, M1 (h) (human (printed (h))), P11229
T3 chain: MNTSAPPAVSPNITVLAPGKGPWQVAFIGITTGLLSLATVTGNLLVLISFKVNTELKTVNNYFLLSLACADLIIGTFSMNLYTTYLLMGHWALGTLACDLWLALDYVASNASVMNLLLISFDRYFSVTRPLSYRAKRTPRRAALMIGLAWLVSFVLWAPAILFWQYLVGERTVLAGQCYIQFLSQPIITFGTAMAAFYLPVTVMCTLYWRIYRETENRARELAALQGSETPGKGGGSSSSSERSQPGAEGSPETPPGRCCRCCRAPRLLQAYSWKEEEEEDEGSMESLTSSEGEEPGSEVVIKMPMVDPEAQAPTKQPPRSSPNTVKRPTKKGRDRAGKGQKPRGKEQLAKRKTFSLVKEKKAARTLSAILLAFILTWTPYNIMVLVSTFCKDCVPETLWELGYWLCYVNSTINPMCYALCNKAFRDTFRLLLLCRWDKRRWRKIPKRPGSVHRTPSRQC

[9] = substrate: N neuronal alpha 4beta 2 (h) (human (printed (h))), P43681
[10] = molecular target: beta 2 (h) (human (printed (h))), P07550
[11] = molecular target: T4, delta (DOP) (h) (human), P41143
T4 chain: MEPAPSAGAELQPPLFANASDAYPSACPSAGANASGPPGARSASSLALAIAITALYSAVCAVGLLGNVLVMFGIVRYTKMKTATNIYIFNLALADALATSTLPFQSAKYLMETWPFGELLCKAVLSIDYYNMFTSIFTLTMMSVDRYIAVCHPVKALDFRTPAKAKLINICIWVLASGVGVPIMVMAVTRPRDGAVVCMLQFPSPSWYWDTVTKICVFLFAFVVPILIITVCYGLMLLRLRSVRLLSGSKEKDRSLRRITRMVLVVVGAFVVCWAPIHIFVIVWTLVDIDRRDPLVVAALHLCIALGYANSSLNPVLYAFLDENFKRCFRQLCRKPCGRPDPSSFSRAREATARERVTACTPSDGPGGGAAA

Sequence of H1 (h) (human (printed (h))), P35367 (P35367 whole entry): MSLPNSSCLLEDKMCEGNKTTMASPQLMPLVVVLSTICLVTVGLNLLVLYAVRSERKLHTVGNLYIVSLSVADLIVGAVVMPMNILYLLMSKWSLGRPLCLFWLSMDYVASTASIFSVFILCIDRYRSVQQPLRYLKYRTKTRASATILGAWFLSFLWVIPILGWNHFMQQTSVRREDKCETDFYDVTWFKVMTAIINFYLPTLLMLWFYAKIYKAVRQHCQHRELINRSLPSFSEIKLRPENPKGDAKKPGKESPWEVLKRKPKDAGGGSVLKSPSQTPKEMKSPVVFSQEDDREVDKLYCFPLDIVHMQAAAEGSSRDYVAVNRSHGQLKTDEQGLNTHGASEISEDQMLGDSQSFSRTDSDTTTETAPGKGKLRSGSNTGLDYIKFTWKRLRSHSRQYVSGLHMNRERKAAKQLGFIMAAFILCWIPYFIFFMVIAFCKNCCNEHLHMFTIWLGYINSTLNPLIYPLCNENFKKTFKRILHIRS
Sequence of H2 (h) (human (printed (h))), P25021 (P25021 whole entry): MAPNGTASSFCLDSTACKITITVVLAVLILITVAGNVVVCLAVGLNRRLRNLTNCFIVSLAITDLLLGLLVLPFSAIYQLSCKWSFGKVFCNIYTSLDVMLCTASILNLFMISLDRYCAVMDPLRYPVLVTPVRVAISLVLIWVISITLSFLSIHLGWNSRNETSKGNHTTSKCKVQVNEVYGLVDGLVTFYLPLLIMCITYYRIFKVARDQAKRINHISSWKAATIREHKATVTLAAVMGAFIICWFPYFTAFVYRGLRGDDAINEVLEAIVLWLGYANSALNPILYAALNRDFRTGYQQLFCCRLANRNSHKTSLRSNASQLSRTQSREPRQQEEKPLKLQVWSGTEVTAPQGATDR

% Inhibition of Specific Binding [1]: -3% | % Inhibition of Specific Binding [2]: -2% | % Inhibition of Specific Binding [3]: 3% | % Inhibition of Specific Binding [4]: 2% | % Inhibition of Specific Binding [5]: 24% | % Inhibition of Specific Binding [6]: 11% | % Inhibition of Specific Binding [7]: -5% | % Inhibition of Specific Binding [8]: 6% | % Inhibition of Specific Binding [9]: -8% | % Inhibition of Specific Binding [10]: 4% | % Inhibition of Specific Binding [11]: 0%
B1: Hex-[Cys(tMeBn(DOTA-PP))-Pro-Pro-Thr-Gln-Phe-Cys]-Asp-NH2 (3BP-3407) (peptide)
peptide: Hexanoyl-CPPTQFCD-NH2
modifications: linker 1-7 via tMeBn(DOTA-PP)

% Inhibition of Specific Binding [1]: -8% | % Inhibition of Specific Binding [2]: 4% | % Inhibition of Specific Binding [3]: -5% | % Inhibition of Specific Binding [4]: -5% | % Inhibition of Specific Binding [5]: 16% | % Inhibition of Specific Binding [6]: 4% | % Inhibition of Specific Binding [7]: -16% | % Inhibition of Specific Binding [8]: 8% | % Inhibition of Specific Binding [9]: -2% | % Inhibition of Specific Binding [10]: 8% | % Inhibition of Specific Binding [11]: 1%
B2: Hex-[Cys(tMeBn(DOTA-AET))-Pro-Pro-Thr-Gln-Phe-Cys]-OH (3BP-3554) (peptide)
peptide: Hexanoyl-CPPTQFC-OH
modifications: linker 1-7 via tMeBn(DOTA-AET)
